Laboratory results published in US20100297122A1.
One block for each substance: values may come before it.

Target: zTNF4 (UniProt Q9Y275)
Assay: cell-based or functional assay

Chain of Atacicept (chain): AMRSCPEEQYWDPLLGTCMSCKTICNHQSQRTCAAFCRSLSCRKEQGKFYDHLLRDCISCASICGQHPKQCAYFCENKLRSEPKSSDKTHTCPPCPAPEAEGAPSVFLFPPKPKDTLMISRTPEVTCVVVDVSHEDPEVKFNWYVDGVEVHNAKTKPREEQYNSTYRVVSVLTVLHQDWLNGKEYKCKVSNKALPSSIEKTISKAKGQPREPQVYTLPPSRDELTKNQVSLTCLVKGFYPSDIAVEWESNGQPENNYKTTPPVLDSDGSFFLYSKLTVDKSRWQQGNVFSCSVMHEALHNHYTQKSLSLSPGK

Biological activity (U/mL); Atacicept 25/1; 1 Mo +5° C.: 137000 U/mL
Biological activity (U/mL); Atacicept 25/1; 1 Mo+25° C.: 134000 U/mL
Biological activity (U/mL); Atacicept 25/1; 2 Mo +5° C.: 135000 U/mL
Biological activity (U/mL); Atacicept 25/1; 2 Mo+25° C.: 125000 U/mL
Biological activity (U/mL); Atacicept 25/1; 3 Mo +5° C.: 136000 U/mL
Biological activity (U/mL); Atacicept 25/1; 3 Mo+25° C.: 132000 U/mL
Biological activity (U/mL); Atacicept 25/1; 6 Mo +5° C.: 127000 U/mL
Biological activity (U/mL); Atacicept 25/1; 6 Mo+25° C.: 118000 U/mL
Biological activity (U/mL); Atacicept 25/1; 9 Mo +5° C.: 147000 U/mL
Biological activity (U/mL); Atacicept 25/1; 12 Mo +5° C.: 131000 U/mL
Biological activity (U/mL); Atacicept 25/1; 18 Mo +5° C.: 108000 U/mL
Biological activity (U/mL); Atacicept 25/1; Zero Time (5° C. block): 140000 U/mL
Biological activity (U/mL); Atacicept 25/1; Zero Time (25° C. block): 140000 U/mL
Biological activity (U/mL); Atacicept 25/1.2; 1 Mo +5° C.: 116000 U/mL
Biological activity (U/mL); Atacicept 25/1.2; 1 Mo+25° C.: 114000 U/mL
Biological activity (U/mL); Atacicept 25/1.2; 2 Mo +5° C.: 126000 U/mL
Biological activity (U/mL); Atacicept 25/1.2; 2 Mo+25° C.: 118000 U/mL
Biological activity (U/mL); Atacicept 25/1.2; 3 Mo +5° C.: 122000 U/mL
Biological activity (U/mL); Atacicept 25/1.2; 3 Mo+25° C.: 114000 U/mL
Biological activity (U/mL); Atacicept 25/1.2; 6 Mo +5° C.: 115000 U/mL
Biological activity (U/mL); Atacicept 25/1.2; 6 Mo+25° C.: 103000 U/mL
Biological activity (U/mL); Atacicept 25/1.2; 9 Mo +5° C.: 124000 U/mL
Biological activity (U/mL); Atacicept 25/1.2; 12 Mo +5° C.: 106000 U/mL
Biological activity (U/mL); Atacicept 25/1.2; 18 Mo +5° C.: 113000 U/mL
Biological activity (U/mL); Atacicept 25/1.2; Zero Time (5° C. block): 112000 U/mL
Biological activity (U/mL); Atacicept 25/1.2; Zero Time (25° C. block): 112000 U/mL
Biological activity (U/mL); Atacicept 75/1; 1 Mo +5° C.: 410000 U/mL
Biological activity (U/mL); Atacicept 75/1; 1 Mo+25° C.: 388000 U/mL
Biological activity (U/mL); Atacicept 75/1; 2 Mo +5° C.: 380000 U/mL
Biological activity (U/mL); Atacicept 75/1; 2 Mo+25° C.: 337000 U/mL
Biological activity (U/mL); Atacicept 75/1; 3 Mo +5° C.: 374000 U/mL
Biological activity (U/mL); Atacicept 75/1; 3 Mo+25° C.: 365000 U/mL
Biological activity (U/mL); Atacicept 75/1; 6 Mo +5° C.: 364000 U/mL
Biological activity (U/mL); Atacicept 75/1; 6 Mo+25° C.: 328000 U/mL
Biological activity (U/mL); Atacicept 75/1; 9 Mo +5° C.: 468000 U/mL
Biological activity (U/mL); Atacicept 75/1; 12 Mo +5° C.: 346000 U/mL
Biological activity (U/mL); Atacicept 75/1; Zero Time (5° C. block): 423000 U/mL
Biological activity (U/mL); Atacicept 75/1; Zero Time (25° C. block): 423000 U/mL
Biological activity (U/mL); Atacicept 150/1; 1 Mo +5° C.: 775000 U/mL
Biological activity (U/mL); Atacicept 150/1; 1 Mo+25° C.: 777000 U/mL
Biological activity (U/mL); Atacicept 150/1; 2 Mo +5° C.: 755000 U/mL
Biological activity (U/mL); Atacicept 150/1; 2 Mo+25° C.: 720000 U/mL
Biological activity (U/mL); Atacicept 150/1; 3 Mo +5° C.: 819000 U/mL
Biological activity (U/mL); Atacicept 150/1; 3 Mo+25° C.: 761000 U/mL
Biological activity (U/mL); Atacicept 150/1; 6 Mo +5° C.: 815000 U/mL
Biological activity (U/mL); Atacicept 150/1; 6 Mo+25° C.: 677000 U/mL
Biological activity (U/mL); Atacicept 150/1; 9 Mo +5° C.: 843000 U/mL
Biological activity (U/mL); Atacicept 150/1; 12 Mo +5° C.: 810000 U/mL
Biological activity (U/mL); Atacicept 150/1; 18 Mo +5° C.: 565000 U/mL
Biological activity (U/mL); Atacicept 150/1; Zero Time (5° C. block): 836000 U/mL
Biological activity (U/mL); Atacicept 150/1; Zero Time (25° C. block): 836000 U/mL
Biological activity (U/mL); Atacicept 150/1.2; 1 Mo +5° C.: 643000 U/mL
Biological activity (U/mL); Atacicept 150/1.2; 1 Mo+25° C.: 695000 U/mL
Biological activity (U/mL); Atacicept 150/1.2; 2 Mo +5° C.: 743000 U/mL
Biological activity (U/mL); Atacicept 150/1.2; 2 Mo+25° C.: 697000 U/mL
Biological activity (U/mL); Atacicept 150/1.2; 3 Mo +5° C.: 695000 U/mL
Biological activity (U/mL); Atacicept 150/1.2; 3 Mo+25° C.: 607000 U/mL
Biological activity (U/mL); Atacicept 150/1.2; 6 Mo +5° C.: 645000 U/mL
Biological activity (U/mL); Atacicept 150/1.2; 6 Mo+25° C.: 587000 U/mL
Biological activity (U/mL); Atacicept 150/1.2; 9 Mo +5° C.: 714000 U/mL
Biological activity (U/mL); Atacicept 150/1.2; 12 Mo +5° C.: 620000 U/mL
Biological activity (U/mL); Atacicept 150/1.2; 18 Mo +5° C.: 551000 U/mL
Biological activity (U/mL); Atacicept 150/1.2; Zero Time (5° C. block): 647000 U/mL
Biological activity (U/mL); Atacicept 150/1.2; Zero Time (25° C. block): 647000 U/mL
Substance: Atacicept (Fc fusion)

Bioassay (U/mL); 21A, 70 mg/mL; 2-8° C.; 4 w: 366000 U/mL
Bioassay (U/mL); 21A, 70 mg/mL; 2-8° C.; 8 w: 319000 U/mL
Bioassay (U/mL); 21A, 70 mg/mL; 2-8° C.; 13 w: 388000 U/mL
Bioassay (U/mL); 21A, 70 mg/mL; 2-8° C.; time 0: 348000 U/mL
Bioassay (U/mL); 21A, 70 mg/mL; 25° C.; 4 w: 312000 U/mL
Bioassay (U/mL); 21A, 70 mg/mL; 25° C.; 8 w: 279000 U/mL
Bioassay (U/mL); 21A, 70 mg/mL; 25° C.; 13 w: 305000 U/mL
Bioassay (U/mL); 21A, 70 mg/mL; 25° C.; time 0: 348000 U/mL
Bioassay (U/mL); 21B, 70 mg/mL; 2-8° C.; 4 w: 318000 U/mL
Bioassay (U/mL); 21B, 70 mg/mL; 2-8° C.; 8 w: 290000 U/mL
Bioassay (U/mL); 21B, 70 mg/mL; 2-8° C.; 13 w: 358000 U/mL
Bioassay (U/mL); 21B, 70 mg/mL; 2-8° C.; time 0: 336000 U/mL
Bioassay (U/mL); 21B, 70 mg/mL; 25° C.; 4 w: 302000 U/mL
Bioassay (U/mL); 21B, 70 mg/mL; 25° C.; 8 w: 268000 U/mL
Bioassay (U/mL); 21B, 70 mg/mL; 25° C.; 13 w: 343000 U/mL
Bioassay (U/mL); 21B, 70 mg/mL; 25° C.; time 0: 336000 U/mL
Bioassay (U/mL); 21C, 70 mg/mL; 2-8° C.; 4 w: 334000 U/mL
Bioassay (U/mL); 21C, 70 mg/mL; 2-8° C.; 8 w: 307000 U/mL
Bioassay (U/mL); 21C, 70 mg/mL; 2-8° C.; 13 w: 335000 U/mL
Bioassay (U/mL); 21C, 70 mg/mL; 2-8° C.; time 0: 323000 U/mL
Bioassay (U/mL); 21C, 70 mg/mL; 25° C.; 4 w: 316000 U/mL
Bioassay (U/mL); 21C, 70 mg/mL; 25° C.; 8 w: 269000 U/mL
Bioassay (U/mL); 21C, 70 mg/mL; 25° C.; 13 w: 318000 U/mL
Bioassay (U/mL); 21C, 70 mg/mL; 25° C.; time 0: 323000 U/mL
Bioassay (U/mL); 21D, 100 mg/mL; 2-8° C.; 4 w: 452000 U/mL
Bioassay (U/mL); 21D, 100 mg/mL; 2-8° C.; 8 w: 432000 U/mL
Bioassay (U/mL); 21D, 100 mg/mL; 2-8° C.; 13 w: 490000 U/mL
Bioassay (U/mL); 21D, 100 mg/mL; 2-8° C.; time 0: 461000 U/mL
Bioassay (U/mL); 21D, 100 mg/mL; 25° C.; 4 w: 509000 U/mL
Bioassay (U/mL); 21D, 100 mg/mL; 25° C.; 8 w: 431000 U/mL
Bioassay (U/mL); 21D, 100 mg/mL; 25° C.; 13 w: 419000 U/mL
Bioassay (U/mL); 21D, 100 mg/mL; 25° C.; time 0: 461000 U/mL
Bioassay (U/mL); 21E, 100 mg/mL; 2-8° C.; 4 w: 439000 U/mL
Bioassay (U/mL); 21E, 100 mg/mL; 2-8° C.; 8 w: 436000 U/mL
Bioassay (U/mL); 21E, 100 mg/mL; 2-8° C.; 13 w: 470000 U/mL
Bioassay (U/mL); 21E, 100 mg/mL; 2-8° C.; time 0: 459000 U/mL
Bioassay (U/mL); 21E, 100 mg/mL; 25° C.; 4 w: 442000 U/mL
Bioassay (U/mL); 21E, 100 mg/mL; 25° C.; 8 w: 396000 U/mL
Bioassay (U/mL); 21E, 100 mg/mL; 25° C.; 13 w: 405000 U/mL
Bioassay (U/mL); 21E, 100 mg/mL; 25° C.; time 0: 459000 U/mL
Bioassay (U/mL); 21F, 100 mg/mL; 2-8° C.; 4 w: 470000 U/mL
Bioassay (U/mL); 21F, 100 mg/mL; 2-8° C.; 8 w: 407000 U/mL
Bioassay (U/mL); 21F, 100 mg/mL; 2-8° C.; 13 w: 424000 U/mL
Bioassay (U/mL); 21F, 100 mg/mL; 2-8° C.; time 0: 456000 U/mL
Bioassay (U/mL); 21F, 100 mg/mL; 25° C.; 4 w: 449000 U/mL
Bioassay (U/mL); 21F, 100 mg/mL; 25° C.; 8 w: 387000 U/mL
Bioassay (U/mL); 21F, 100 mg/mL; 25° C.; 13 w: 476000 U/mL
Bioassay (U/mL); 21F, 100 mg/mL; 25° C.; time 0: 456000 U/mL
Bioassay (U/mL); 21G, 100 mg/mL; 2-8° C.; 4 w: 543000 U/mL
Bioassay (U/mL); 21G, 100 mg/mL; 2-8° C.; 8 w: 401000 U/mL
Bioassay (U/mL); 21G, 100 mg/mL; 2-8° C.; 13 w: 445000 U/mL
Bioassay (U/mL); 21G, 100 mg/mL; 2-8° C.; time 0: 494000 U/mL
Bioassay (U/mL); 21G, 100 mg/mL; 25° C.; 4 w: 497000 U/mL
Bioassay (U/mL); 21G, 100 mg/mL; 25° C.; 8 w: 433000 U/mL
Bioassay (U/mL); 21G, 100 mg/mL; 25° C.; 13 w: 441000 U/mL
Bioassay (U/mL); 21G, 100 mg/mL; 25° C.; time 0: 494000 U/mL
Bioassay (U/mL); 21H, 100 mg/mL; 2-8° C.; 4 w: 446000 U/mL
Bioassay (U/mL); 21H, 100 mg/mL; 2-8° C.; 8 w: 388000 U/mL
Bioassay (U/mL); 21H, 100 mg/mL; 2-8° C.; 13 w: 445000 U/mL
Bioassay (U/mL); 21H, 100 mg/mL; 2-8° C.; time 0: 472000 U/mL
Bioassay (U/mL); 21H, 100 mg/mL; 25° C.; 4 w: 465000 U/mL
Bioassay (U/mL); 21H, 100 mg/mL; 25° C.; 8 w: 366000 U/mL
Bioassay (U/mL); 21H, 100 mg/mL; 25° C.; 13 w: 434000 U/mL
Bioassay (U/mL); 21H, 100 mg/mL; 25° C.; time 0: 472000 U/mL
Substance: TACI-Fc5 (Fc fusion)
